Literature values in patent publication US20220023273A1, “METHODS FOR TREATING SYMPTOMS AND DISORDERS ASSOCIATED WITH LYSOSOMAL STORAGE DISEASES” (GENZYME CORPORATION, priority 2019, published 2022).

Test system: plasma GL-3
Details: after 156 weeks; matched historical phase 3 trial patients treated with agalsidase beta; cited from earlier work

B1: agalsidase beta: semisynthetic enzyme agalsidase beta (alpha-galactosidase), enzyme replacement therapy for Fabry disease (protein, UniProt P06280 32-429, looked up)
Alpha-galactosidase A: LDNGLARTPTMGWLHWERFMCNLDCQEEPDSCISEKLFMEMAELMVSEGWKDAGYEYLCIDDCWMAPQRDSEGRLQADPQRFPHGIRQLANYVHSKGLKLGIYADVGNKTCAGFPGSFGYYDIDAQTFADWGVDLLKFDGCYCDSLENLADGYKHMSLALNRTGRSIVYSCEWPLYMWPFQKPNYTEIRQYCNHWRNFADIDDSWKSIKSILDWTSFNQERIVDVAGPGGWNDPDMLVIGNFGLSWNQQVTQMALWAIMAAPLFMSNDLRHISPQAKALLQDKDVIAINQDPLGKQGYQLRQGDNFEVWERPLSGLAWAVAMINRQEIGGPRSYTIAVASLGKGVACNPACFITQLLPVKRKLGFYEWTSRLRSHINPTGTVLLQLENTMQMSLKDLL
For B1, the “Plasma GL-3 levels” value is given as 4.44 µg/mL.
